Tested on: MS2 coat protein
Assay: apparent KD of MS2 coat protein; designed switch direction (-1 OFF switch, 1 ON switch): -1; higher = weaker reporter binding
Procedure, shortened: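 The reported apparent KD is a per-design median over clusters, from curve fits of normalised cluster fluorescence. Protein titrations used SNAP-549-labelled MS2 coat protein, doubled from 0.7 or 1.5 nM to 3 µM, in Tris-HCl pH 7.5 buffer with KCl, MgCl2, BSA, DTT, tRNA and Tween-20, with no input, 200 uM small-molecule ligand, or an oligonucleotide input. The RNA switches were transcribed on Illumina chips by stalled E. coli RNA polymerase.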

[1] = input ligand: microRNA oligo, concentration not stated
[2] = Eterna round: R95, input ligand: FMN 200 uM
[3] = Eterna round: R95, input ligand: microRNA oligo, concentration not stated
[4] = Eterna round: R95, input ligand: none

Sequence | apparent KD of MS2 coat protein (input ligand: FMN 200 uM) | apparent KD of MS2 coat protein (input ligand: none) | apparent KD of MS2 coat protein [1] | apparent KD of MS2 coat protein [2] | apparent KD of MS2 coat protein [3] | apparent KD of MS2 coat protein [4]
GUCCUUAACGAGGAUAUCGGGCGGGUUUUUGUUUGAGAAGGCGUGACAUGAGGAUCACCCAUGUGGCGCGUGGG [-24.6, -21.7 kcal, A 19%] (Eterna round: R97, puzzle: Exclusion 6) | 36.7 nM | 29.7 nM |  |  |  | 
UGCAGACGAGGAUAUAGAUUUGAUAACAUGAGGAUCACCCAUGUGAUCGAUAGAUCAGAUUUAGAAGGCGUCUGCU [E5/8-A4] (Eterna round: R97, puzzle: Exclusion 5) | 586 nM | 715 nM |  |  |  | 
CCCGUCGAUGUAGGAUAUGCCCGGGUCUCCCGGGCAGAAGGACAUGAGGAUCACCCAUGUUCAUGAGCAUCAGCCAUGAAUGGG [Double but mutated MS2] (Eterna round: R96, puzzle: Exclusion NG 1) | 12.8 nM | 20.2 nM | 12.7 nM |  |  | 
GAGAAGGUAGGAUAUACGAAGAAAAAGGGUAGAAUAAGAACACAUGAGGAUCACCCAUGUAGAAGGACCAAGAG [Mat - Exclusion 2 - Mod of my Tesla design - D18] (puzzle: Exclusion 2) |  |  |  | 37.1 nM | 18.6 nM | 14.7 nM
GAUGUGGGUUUCCGGAGUAACAUGAGGAUCACCCAUGUAGAAGUUGGAGGGAUAAUGCUUUUUGCUCGUUACACGUG [JR_SV3TOV1_Sub054] (puzzle: Sensor v3, turn-off variant 1) |  |  |  | 404 nM | 323 nM | 538 nM
GAAAAGCGAGGAUAUACAUGAGGAUCACCCAUGUAGCAAAAGCGUGCGGCGGUCGGAGGUAGAAGGCGCACAAC [Zamara] (puzzle: Exclusion 3) |  |  |  | 81.2 nM | 51.8 nM | 100 nM
CGUUCGCGAGGAUAUGCAUUCGAGUCCACUACGUGUCUGGGACUUGAGGAUCACCCAAGUAGAAGGCGCCUAAA [salish99_ex2_r4_652] (Eterna round: R97, puzzle: Exclusion 2) | 514 nM | 577 nM |  |  |  | 
UAACUUCUUGUAAGGAUAUCGGUCCCAAGGGACAACGAGAAGGUACAUGAGGAUCACCCAUGUGAAAUAAGAAU [Zala] (puzzle: Brourd's mod of Exclusion 4) |  |  |  | 66.6 nM | 22.7 nM | 19.8 nM
AGGUGUAGAGGAUAUACAGUGUAUUACAUGAGGAUCACCCAUGUCCUUCAAUGGGUAUCAGUAGAAGGCUACACCA [Omei Ex5 C1] (Eterna round: R97, puzzle: Exclusion 5) | 1060 nM | 485 nM |  |  |  | 
ACGCGUGGCUAGGAUAUGCAGCAAUCUAGCCAGGCAGAAGGAGCCACAUGAGGAUCACCCAUGUGGUGAUCCUC [eternacac ex6r4 sub2] (Eterna round: R97, puzzle: Exclusion 6) | 8.21 nM | 11.2 nM |  |  |  | 
GGUAGAGUGGUAGGAUAUCCGACUGUUUCAGACGGAGAAGGACCACAGUCACUGGGUCCAAAUAUCAUGGAGACCUGAUCUACC [pwkr exNG1 F6.8] (Eterna round: R96, puzzle: Exclusion NG 1) | 983 nM | 634 nM | 556 nM |  |  | 
AAUCCACAUGAGGAUCACCCAUGUGAGGAUAUGUCCAUAUUCGGCAAAUCGGAUAUGGACAGAAGGCACAUAAA [JR_Exclusion1_Sub013] (puzzle: Exclusion 1) |  |  |  |  | 28.3 nM | 
GCUAGGAAUGUCAGGAUAUGCUGUUCCUUGGAACAGCAGAAGGGACAUGAGGAUCACCCAUGUGCUAACCUAGC [Mat - Exclusion 4 - JL Mod - D5] (Eterna round: R97, puzzle: Brourd's mod of Exclusion 4) | 99.2 nM | 24.4 nM |  |  |  | 
GGUGCGUAUGUGAGGAUAUGCUGGUCCUUGGCUCGGCAGAAGGCACAUGAGGAUCACCCAUGUGGUGUCGUGCC [salish99_Bmod_ex4_056] (Eterna round: R96, puzzle: Brourd's mod of Exclusion 4) | 46 nM | 19.8 nM | 14.9 nM |  |  | 
UUUACAAGCUAUAGAUCCCACAUGAGGAUCACCCAUGUAGCUGCCAACGGUAGCUUUUUAUGGUUUGCUCGUCUUAU [JL TOV1 3.34] (Eterna round: R97, puzzle: Sensor, turn-off variant 1) | 424 nM | 1210 nM |  |  |  | 
CUAUGAGCUGAGGAUAUCUGCAGGUUGUGCCUGGGAGAAGGCAGCACAUGAGGAUCACCCAUGUGACCGAAAUA [Mod Ex6 A.17 by Nando] (Eterna round: R97, puzzle: Exclusion 6) | 195 nM | 50.8 nM |  |  |  | 
UCCUUACAUGAGGAUCACCCAUGUCAGGAUAUCUCCACACUGCGCUUGCGCAGUGUAUAGAGAAGGGACAGGCU [JL ViennaUCT Aner mod 6] (puzzle: Exclusion 1) |  |  |  | 33.4 nM | 26.5 nM | 35.8 nM

Sequence | apparent KD of MS2 coat protein (input ligand: FMN 200 uM) | apparent KD of MS2 coat protein (input ligand: none) | apparent KD of MS2 coat protein [1] | apparent KD of MS2 coat protein [2] | apparent KD of MS2 coat protein [3] | apparent KD of MS2 coat protein [4]
CACUCACAUGAGGAUCACCCAUGUCAGGAUAUCUCAGUGCAUCCACACGGACGCAUCAAGAGAAGGGACAAAAC [Vinxlusion 1 - Jieux - Exclusion 1] (Eterna round: R97, puzzle: Exclusion 1) | 40.2 nM | 36.6 nM |  |  |  | 
AAAUAACUAGGAUAUCGAGGCACAGACAUGAGGAUCACCCAUGUGUGGUCUUCGUGCUUACGAGAAGGAGUACGGC [Teceri] (Eterna round: R96, puzzle: Exclusion 5) | 199 nM | 305 nM | 175 nM |  |  | 
GCAGCAUAGUUAACAGACUGUUACAUGAGGAUCACCCAUGUACAGGAUAUGGUCUGGAUUACAGGCCAGAAGGGUACAAGCUGC [Eli exng3 - 019] (Eterna round: R96, puzzle: Exclusion NG 3) | 10.1 nM | 11.6 nM | 8.94 nM |  |  | 
CUAUUCCGAGGAUAUACAUGAGGAUCACCCAUGUCGGGCCUCAGCGUUUAGCGCGUAAGUAGAAGGUGGGUUUC [JL Riri mod 7] (puzzle: Exclusion 3) |  |  |  |  | 27.4 nM | 
GUGUACAGAGGAUAUGCUUGAAUCUAGCGAAGCUAGGUUCGACAUGAGGAUCACCCAUGUAGAAGGCUGUACAC [Dot plot directed A v3] (puzzle: Exclusion 2) |  |  |  |  | 13.4 nM | 
UUGUUGUGUGUAGGAUAUGCGUGUUAUUAUUAUGCAGAAGGACAUGAGGAUCACCCAUGUGUAUUGUUAUUAUAUAUUAUAUAU [Title] (Eterna round: R96, puzzle: Exclusion NG 1) |  |  | 15.6 nM |  |  | 
GUUACUAUUGUGAGGAUAUACUUAUUAAUAAAUAGGUAGAAGGCACAUGAGGAUCACCCAUGUUUUAACUUUUC [lam1] (Eterna round: R97, puzzle: Brourd's mod of Exclusion 4) | 96.8 nM | 24.9 nM |  |  |  | 
UAAUAAUAGCAAGGAUAUGAUUAUUAUAAUAUAUCAGAAGGUGCACAUGAGGAUCACCCAUGUUUUAUAAUUUGUAAUUUAAAU [2nd something] (Eterna round: R96, puzzle: Exclusion NG 1) |  |  | 40.4 nM |  |  | 
GUAAACGCAGAGGAUAUAUCAGAUCAAAGCUGCAUAGAAGGCUGCACAUGAGGAUCACCCAUGUGGUCUUUAAU [Mat - Exclusion 6 - JL Mod - D3] (Eterna round: R97, puzzle: Exclusion 6) | 203 nM | 21 nM |  |  |  | 
AGAUCCUGAGUCAGGAUAUAGAGGCGGUAGCCUGGCUAGAAGGGACAUGAGGAUCACCCAUGUGGGUUCGAGCC [Isonus] (puzzle: Brourd's mod of Exclusion 4) |  |  |  |  | 16.7 nM | 
GCAACUACGGAUCUCAUCAACAUGAGGAUCACCCAUGUAGAAUGCGUACAAGCUUUUUGUUCUGGCAUCCCAUAGUC [Eternabot (L2) Solution 35] (Eterna round: R97, puzzle: Sensor, turn-off variant 1) | 63 nM | 65.3 nM |  |  |  | 
GCAGCGUAUGUAGGAUAUCGGUCAGUUUCUGAUCGAGAAGGACAUGAGGAUCACCCAUGUAAAUUACCGACUUUGUCGGGCUGC [JL ENG1 3.67] (Eterna round: R96, puzzle: Exclusion NG 1) | 16.3 nM | 16.3 nM | 14.7 nM |  |  | 
UUAAUUAAUUAACGCAGCAAGAUCACAUGAGGAUCACCCAUGUAGGAUAUCAGCUCGUGUAGAGCUGAGAAGGACAUAGCUGCG [ExNG3/1-A3] (Eterna round: R96, puzzle: Exclusion NG 3) | 80.8 nM | 16.8 nM | 17.2 nM |  |  | 
AUUCAUGCAGGAUAUACAUGAGGAUCACCCAUGUUAAUUUCUACAAGGCGGCAUCUAUGUAGAAGGGUAUGAAG [Eternabot (L2) Solution 33] (Eterna round: R97, puzzle: Exclusion 3) | 35.5 nM | 24.6 nM |  |  |  | 
CUUUUGUGAGGAUAUUAGUAGUAAAUAAAUAAAAUUUCUACUGAGAAGGCACAUGAGGAUCACCCAUGUUCCUC [salish99_ex4_r3_061] (puzzle: Exclusion 4) |  |  |  |  | 33.2 nM | 
GCAUGUCUUAAGGAUAUGCUUAGGCGUGAGCCGGCAGAAGGUAAGACAUGAGGAUCACCCAUGUUUUCCUAAAA [jl-ex6-4.31 ViennaUCT mod] (Eterna round: R97, puzzle: Exclusion 6) | 171 nM | 24.4 nM |  |  |  | 
AAUGAUGAUGUGAGGAUAUACAUAGUUAGACCGUAGUAGAAGGCACAUGAGGAUCACCCAUGUAGAUGUAAGGU [JR_BME4_Sub002] (puzzle: Brourd's mod of Exclusion 4) |  |  |  | 26.3 nM | 17 nM | 17.7 nM

From the supplement of paper PMC9170038
